Data from article PMC5766566, “Characterization of human small heat shock protein HSPB1 α-crystallin domain localized mutants associated with hereditary motor neuron diseases” (Scientific Reports, 2018).

Legend:
Details in all cases: both partners purified
[1] = target: T1, human HSPB1 S135F mutant (human, UniProt P04792 1-205, S135F); assay: cross-linking; disulfide cross-linking of mixtures: 50 μM of each protein in 50 mM sodium phosphate pH 7.5, 100 mM NaCl, 5 mM DTT overnight at 37 °C, then dialysis without DTT at 20 °C for 24 h; non-reducing SDS-PAGE
T1 construct: HSPB1 (HSP27), human, with the autosomal dominant Charcot-Marie-Tooth mutation S135F; Disease mutation found in patients; Probably the whole protein; SUMO carrier probably removed (subtractive IMAC); The abstract once prints R135F for this mutant; source: recombinant (pET23b or pETHSUK construct), expressed as described earlier; purified (ammonium sulfate fractionation, anion-exchange, SEC; or …)

[2] = target: T2, human small heat shock protein HSPB1, wild type (human, UniProt P04792 1-205); assay: as above
T2 construct: HSPB1 (HSP27), human; six Trp); Two constructs and two purification routes were used and are said to give indistinguishable proteins; Polydisperse oligomer, on average 23 subunits by SEC-SAXS; also called HSP27; WT HSPB1; source: recombinant (pET23b or pETHSUK construct), expressed as described earlier; purified (ammonium sulfate fractionation, anion-exchange, SEC; or subtractive IMAC, …

[3] = target: T3, human HSPB1 R127W mutant (human, UniProt P04792 1-205, R127W); assay: as above
T3 construct: HSPB1 (HSP27), human, with the autosomal dominant Charcot-Marie-Tooth mutation R127W; Disease mutation found in patients; Probably the whole protein; SUMO carrier probably removed (subtractive IMAC); source: recombinant (pET23b or pETHSUK construct), expressed as described earlier

[4] = target: T2, human small heat shock protein HSPB1, …; assay: SEC; equimolar mixture, 30 μM per monomer of each sHSP in buffer S, preincubated at 42 °C for 1 hr, then Superdex 200 HR
[5] = target: T1, human HSPB1 S135F mutant; assay: SEC; equimolar mixture, 30 μM per monomer of each sHSP in buffer S, preincubated at 4 °C for 1 hr, then Superdex 200 HR
[6] = target: T3, human HSPB1 R127W mutant; assay: as above

Measured: binding result

T2 sequence (P04792 whole entry): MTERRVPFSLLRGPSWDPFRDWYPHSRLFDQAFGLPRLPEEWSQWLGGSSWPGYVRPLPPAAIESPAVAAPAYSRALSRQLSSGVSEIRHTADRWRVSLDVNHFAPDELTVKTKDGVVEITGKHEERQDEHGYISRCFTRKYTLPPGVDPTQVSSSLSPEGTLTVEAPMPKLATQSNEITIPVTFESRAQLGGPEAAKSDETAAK
T3 sequence (P04792 whole entry R127W): as the sequence (P04792 whole entry) above, with R127W counted along it
T1 sequence (P04792 whole entry S135F): as the sequence (P04792 whole entry) above, with S135F counted along it

B1: human HSPB6 C46S/E116C double mutant (natural protein, UniProt O14558 1-160, looked up)
chain: MEIPVPVQPSWLRRASAPLPGLSAPGRLFDQRFGEGLLEAELAALSPTTLAPYYLRAPSVALPVAQVPTDPGHFSVLLDVKHFSPEEIAVKVVGEHVEVHARHEERPDEHGFVARCFHRRYRLPPGVDPAAVTSALSPEGVLSIQAAPASAQAPPPAAAK
notes: HSPB6 (HSP20), human, double mutant C46S/E116C made for disulfide cross-linking
binds: [1] | [2] | [3]

B2: human HSPB6, wild type (natural protein, UniProt O14558 1-160, looked up)
chain: MEIPVPVQPSWLRRASAPLPGLSAPGRLFDQRFGEGLLEAELAALCPTTLAPYYLRAPSVALPVAQVPTDPGHFSVLLDVKHFSPEEIAVKVVGEHVEVHARHEERPDEHGFVAREFHRRYRLPPGVDPAAVTSALSPEGVLSIQAAPASAQAPPPAAAK
notes: HSPB6 (HSP20), human small heat shock protein; also called HSP20; WT HSPB6
binds: [4] | [5] | [6]
